# Assay: yeast display, Sf9 membrane polyspecificity reagent, FACS + sequencing; frameworks hold sequencing errors
# Method in brief: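 Nanobodies came from a synthetic yeast display library in Saccharomyces cerevisiae BJ5465, induced with galactose for 36–48 hours and stained for 1 hour at 4 °C with 10% biotinylated, detergent-solubilized Sf9 membrane reagent. Cells were enriched on streptavidin microbeads and then FACS-sorted, with low and high (top ~1%) gates set on anti-HA fluorescence for expression and streptavidin fluorescence for reagent binding. Each polyreactivity label reflects the gate a clone came from. Genes were amplified by colony PCR, sequenced by MiSeq 2 × 250 and filtered by CDR length.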
row,Sequence,polyreactivity (PSR sort gate)
1,QFQLVESGGGLVQSGGSLRLSCAASGFIFRSYAMGWYRQAPVKERELVAVISRRGVNTHYADSVKGRFTISRDNAKNTVYLQMNSLKPEDTAVYYCAKGLTAVGDYWGQGTQVTVSS,high polyreactivity
2,QVQLVESGGGLVQAGGSLRLSCAASGFIFEYNAMGWYRQAPGKERELVAAITSSGGSTYYADSVKGRFTISRDNAKNTVYLQMNSLKPEDTAVYYCARVRRSAYYKDYYYWGQGTQVTVSS,high polyreactivity
3,QVQLVESGGGLVQAGGSLRLICAASGLIFYRNAMGWYRQAPGKERELVAAISSGGRTYYADSVKGRFTISRDNEKNTVYLQMNSLKPEDTAVYYCAASYWKPHRESGYDYWGQGTQVTVSS,high polyreactivity
4,QVQLVESGGGLVQAGGSLRLSCAASGITFRYYAMGWYRQGPGKERELVASITSGGVNTYYADSVKGRFTISRDNANNTDYLQMNSLKPEDTAVFYCATRFSYSALGGYDYWGQGTQVTVSS,low polyreactivity
5,QVQLVESGGVLVQAGGSLRLSCAASGSTSYNNAMGWYREAPGKEREFVAAISSNGDRTYYADSVKGRFTISRDNPKNTVYLLMNSLKPEDTAVFYCAVRSWYNYEWGQGTQVTVSS,high polyreactivity
6,QVHLEESVGGLLQAGGSLRLSCVASGSTFGAYAMGWYRQAPGKERELVAAINTGDSTNYADSVKGRFTISRDNAKNTVYFQMNSLKPVDTAVYYCAAVSKHSGDELDYWGQGTQVTVSS,high polyreactivity
7,QVQLVESGGGLVQAVGSLRLSCAASGFTIIDNAMGWYRQARGKERELVAAISISGGRTYYADSVKGRFTISRDNAKNTVYLQMNSLKPEDTAVYYCAAGKHRRDDYCGQGTQVTVSS,high polyreactivity
8,QVQLVESGGGLVQAGGSLRLSCAASGSTFVWNAMGWYRQAPGKERELVAAITNDGRTNYADSVKGRFTISRDNAKNTVYLQMNSLKPEDTAVYYCNADGFNSYWWNYYWGQGTQVTVSS,low polyreactivity
9,QVQLVESGGGLVQAGCSLLLSCDATGNIFRYYFMGWYRQAPGKEREFVAAITTSCGSTYYADSVKGRFTISRDNAKNTVYLQMNSLKQEDTAVYYCAKDYWVPGWAEYDYWGQGTQVTVSS,low polyreactivity
10,QVQLVESGGGLVQAGGSLRLSCAASGSIFAKYAMGWYRQAPGKERELVAAITYSSSSTYYADSVKGRFTISRDNAKNTVYLQMNSLKPEDTAVYYCAARKKARGHGGNDYWGQGTLVTVSS,high polyreactivity
11,QVQIVESGGGLVQAGGSLRLSCAASGIIFGRNTMGWYRQAPGKERELVAGISSNGGSTYYADSVKGRFTISRDNAKNTVYLQMNSLKPEDTAVYYCAAYYNIPDRRRVGYDYWGQGTQVTVSS,high polyreactivity
12,QVQLVESGGGLVQAGGSLRLSCAASGFNCATNYMGWYRQAPGKERELVAAITKGGGRTYYADSVKGRFTISRDNAKNTVYLQMNSLKPEDTAVYYCAARQLIKYDYWGQGTQVTVSS,low polyreactivity
13,QVQLVESGGGLVQAGGSLRLSCAASGITFYGYAMGWYRQAPGKERELVAAITSGGSTYYADSVKGRFTISRDNAKNTVYLQMNSLKPEDTAVYYCARYYWIRVGRYYRYEYWGQGTQVTVSS,low polyreactivity
14,QVQLVESGGGLVQAGGSLRISCAASGFTFRYYAMGWYRQAPGKERELVATISTGSGVSTYYADSVKGRFTISRDNAKNTVYLQMNSLKPEDTAVYYCAADYDSYYAYRTPYGYWGQGTQVTVSS,low polyreactivity
15,QVQLVESGGGLVQAGGSLRLSCAASGRIFPWYAMGWYRQAPGKERELVAAISWSGGRTYYADSVKGRFTISRDNAKITVYLQMNSLKPEDTAVYYCNTGTSGRFLSFGNFDYWGQGTQVTVSS,high polyreactivity
16,QVQLVESGGGLVQAGGSLRLSCAASGSTFTPYAMGWYRQAPGKDREFVAVITRSGTRTYYADSVKGRFTISRDNAKNTVYLQMNSLKPEDTAVSYCAADRHPYNRYDYYYWGQGTQVTVSS,high polyreactivity
17,HVQLVESGGGLVQAGGSLRLSCAASGSIFYYNVMGWYRQAPGKERELVAAIDIDGSTYYADSVKGRFTISRDNAKNTVYLQMNSMKPEDTAVYYCNAQAPYWFSFYYDHKYDYWGQGTQVTVSS,low polyreactivity
18,QVQLVESVGGLVQAGGRLRLSCAASGSTFPRYTRGWYRQAPGKERELVAAISSRGGSTIYADSVKGRFTNSRDNAMNTVYLEMNSLKPEDSAVYYCAARRASRDGYWGQGTQVTVSS,high polyreactivity
19,QVQLVETPGGLVQAGGSLRLSCAASGRIFAYNAMGWYRQEPGNERELVAAIDSGGDTNYADSVKGRFTISRDNAKNTVYLKMNSLKPEVTAVYYCWSRAAPPGWFYGTNDNYWGQGTQVTVSS,low polyreactivity
20,QVQHVESGGGLVQAGGSLRLSSAAYGFIFGYYTMGWYRQAPGKERELVAAITSGDSTNYADSVKGRFTISRDNAKNTVYLQMNSLKPEDTAVYYCNARGLFTWMDYWGQGTQVTVSS,low polyreactivity
21,QVQLVESGGGLVQAGGSLRLSCAASGSTFLDNAMGWFRQAPGKERELVAAITSGDSTKYADSVKGRFTISRDNEKNTVYLQMNSLKPEDTAVYYCAADVGRNKMDYWGQGTQVTVSS,low polyreactivity

row,Sequence,polyreactivity (PSR sort gate)
1,QVQLVESGGGLVQAGGSLRLSCAASGRTFYQYDMGWYRQAPGKESELVAAIDWSGGSTYYADSVKGRFTISRDYAKITVYLQMNSLKPEDTAVYYCNADAYPHPVVGYDYWGQGTQVTVSS,low polyreactivity
2,QVQLVESGGGLVQAGGSLRLSCAASGRIFKSYAMGWYRQAPGKERELVAAISRSGGRTYYADSVKGRFTISRDNAKNTVYLQMNSLKPEDTAVYYCAATTFVAPYLGQGTQVTVSS,low polyreactivity
3,QVQLVESGGGLVQAGGSLRLSCAASGSIVRFYAMGWYRQAPGKERELVASITSGGSTNYADSVKGRFTISRDNAKNTVYLQMNSLKPEDTAVYYCAVRLKGYRRRDYWGQGTQVTVSS,high polyreactivity
4,QVQLVESGGGLVQAGGSLRLSCAASGRIFTSYAMGWYRQAPGKERELVAAISGSSASTYYADSVKGRFTISRDNAKNTVYLQMNSLKPEDTAVYYCAAYKYDYRVDTGYDYWGQGTQVTVSS,low polyreactivity
5,QVQHVESAGRLVQAGGSLRLSCAASGRILVYYALGWYRQPPGKEREFVAAISQRGGSTYYADSVKGRFTISRDNAKNTVYLQMNSLKPDDTEVYYCATRPIQYRRGYDYWGQGTQVTVSS,high polyreactivity
6,QVQLVESGGGLVQAGGSLRLSCAASGRIFYLYAMGWYRQAPGTEREMVAAITWSGGSTTYADSVKGRFTISRDNAKNTVYLQMNSLKPEDTAVYYCYADGWIFPSFSPMDYWGQGTQVTVSS,low polyreactivity
7,QVQLVESGGGLVQAGGSLRLSCAASGSTFKSYAMGWYRQAPGKERELVAAISRSGGRTYYADSVKGRFTISRDNAKNTVYLQMNSLKPEDTAVYYCATGVKREGDYWGQGTQVTVSS,high polyreactivity
8,QVQLVESGGGLVQAGGSLRLSCAPSGITFYGNDMGWYRQAPGKERELVAAISSGGITNYADSVKGRFTISRDNAKNSVYLQMNSLKPEDTAVYYCAKDLLYYHITPDGYTWYLPEDSWGQGTQVTVSS,low polyreactivity
9,QVQLVESGGGLVQAGGSLGLSSAASGRTFGVYAMGWYRQAPGKERELVAGIRWRGGSTYYADSVKGRFTISRDNAKNTVYLQMNSLKPEDTAVYYCAADVYLVKYDYWGQGTQVTVSS,low polyreactivity
10,QFQLVESGGGLVQAGGSLRLSCAASGRTFGFYAMGWYRQAPGKERELVASITWRGGRTYYADSVKGRFTISRDNAKNTVYLQMNSLKPEDTAVYYCAAVTFSYDGYDYWGQGTQVTVSS,low polyreactivity
11,QVQLVESGGGLVQAGGSLRLSCAASGSIFYTNAMGWYRQAPGKERELVAAITNGSSTNYADSVKGRFTISRDNAKNTVYLQMNSLNPEDTAVYYCAKYFGNYSIYDYWGQGTQVTVSS,low polyreactivity
12,QVQLVESGGGLVQAGGSLRLSCAASGSIFDYNAMGWYRQAPGKERELVAAISSGGSTYYADSVKGRFTISRDNAKNTVYLQMNSLKPEDTAVYYCAVKFWYHIYDYWGQGTQVTVSS,low polyreactivity
13,QVQLVESGGGLVQAGGRLRFSCAASGRIFYSYTMGWYRQAPGKERELVASISRSSGDTYYADSVKGRFTISRDNAKNPVYLQMNSLKPEDTAVYYWAARIKTYSKRYYWGQGTQVTVSS,high polyreactivity
14,QVQLVESAAGLVQAGGSLRLSSAASGSIFGPYAMGWYRQAPGKERELVAVISSGDSTNYADSVKGRFTISRDNAKNTVYLQMNSLKPEDTAVYYCATRYLLYRGGHSLFYHFDYWGQGTQVTVSS,low polyreactivity
15,QVQLVESGGGLVQAGGSRLSCAASGLIFIWYTMGWYRQAPGKERELVAAIDSSGGNTYYADSVKGRFTISRDNAKNTVYLQMNSLKPEDTAVYYCAKDVGHGAGNLMGYWGQGTQVTVSS,low polyreactivity
16,QVQLVESGGGLVQAGGSLRLSCAASGRIFYVNAMGWYRQAPGKERELVAAISGSGGRTYYADSVKGRFTISRDNAKNTVYLQMNSLKPEDTAVYYWNTQFRYPQKYDYWGQGTQVTVSS,high polyreactivity
17,QVQLVESGGGLVQAGGSLRLSCAASGSTFKRNAMGWYRQAPGKERELVAAITSGGSTYYADSVKGRFTISRDNAKNTVYLQMNSLKPEDTAVYYCNKVRGAFYSHLFDYWGQGTQVTVSS,high polyreactivity
18,QVQLLESGGGLVQAGGSLRLSCAATGRIFFYGMGWYRQAPGNETELVATITSVSNTYYADSVKGRFTISRDNAKNTGYLLMNSLKPEDTAVYYCAARPDRYRYRYGYWGQGTQVTVSS,high polyreactivity
19,QVQLVESGGGLVQAGGSLRLSCAASGRTLGQNVMGWYRQAPGKERELVAAISSNTAGNTYYADSVKGRFTISRDNAKNTVYLQMNSLKPEDTAVYYCAIVDSFEAILDYWGQGTQVTVSS,low polyreactivity
20,QVQLVESGGGLVQAGGSLRLSCAASGFTFRRYVMGWYRQAPGKERELVAAISQRGGSTYYADSVKGRFTISRDNAKNTVYLQMNSLKPEDTAVYYCNIDYAGELDYWGQGTQVTVSS,high polyreactivity

# Source: the nanobody polyreactivity screen of Harvey et al. (2022)
